According to article PMC3475010 (BMC Structural Biology, 2012):
Where two headings read alike, the source gives them in different places.

How the values were obtained:
[1] = biological target: T1, StAckA (Salmonella typhimurium acetate kinase, AckA) (Salmonella enterica, UniProt P63411); assay: CD thermal denaturation; type: binding; settings: read-out: dTm
T1 construct: expressed in E. coli; Ni-NTA and gel filtration; homodimer
T1 sequence (P63411 1-400): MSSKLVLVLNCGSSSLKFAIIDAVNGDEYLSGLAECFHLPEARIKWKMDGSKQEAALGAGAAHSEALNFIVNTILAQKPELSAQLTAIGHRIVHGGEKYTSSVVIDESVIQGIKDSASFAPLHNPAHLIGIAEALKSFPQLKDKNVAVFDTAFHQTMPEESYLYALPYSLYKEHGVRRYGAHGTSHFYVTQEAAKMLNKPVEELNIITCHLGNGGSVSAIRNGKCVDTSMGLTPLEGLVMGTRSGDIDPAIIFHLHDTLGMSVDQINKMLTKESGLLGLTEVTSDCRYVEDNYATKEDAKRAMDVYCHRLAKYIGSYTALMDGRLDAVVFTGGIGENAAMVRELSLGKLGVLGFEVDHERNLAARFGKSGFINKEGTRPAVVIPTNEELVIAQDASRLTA

[2] = biological target: T1, StAckA (Salmonella typhimurium acetate kinase, AckA); assay: X-ray crystal structure, […] Å; type: binding; settings: dimeric interface pocket, one citrate per dimer; citrate from crystallization condition
[3] = biological target: T1, StAckA (Salmonella typhimurium acetate kinase, AckA); assay: kinetic assay after […] min preincubation at […] °C with inhibitor; type: biochemical
[4] = biological target: T1, StAckA (Salmonella typhimurium acetate kinase, AckA); assay: initial velocity assay, acetyl-phosphate synthesis direction; type: biochemical; settings: co-substrate acetate, Mg2+, pH 7.5, 37 °C
Description: (§1) initial velocity assay, acetyl-phosphate synthesis direction on StAckA (Salmonella typhimurium acetate kinase, AckA)

[5] = biological target: T1, StAckA (Salmonella typhimurium acetate kinase, AckA); assay: CD thermal denaturation; type: binding; settings: ligand close to its Km, pH 7.5; unliganded reference Tm 45 °C
[6] = biological target: T1, StAckA (Salmonella typhimurium acetate kinase, AckA); assay: inhibition of acetate utilization, kinetic assay; type: biochemical; settings: equimolar to acetate; not a substrate
[7] = substrate: Nc1ncnc2c1ncn2[C@@H]1O[C@H](COP(=O)(O)OP(=O)(O)O)[C@@H](O)[C@H]1O; assay: purified protein; type: biochemical, Salmonella enterica; settings: reverse reaction (ATP synthesis), acetyl-phosphate, Mg2+, pH 7.5, 37 °C
[8] = substrate: CCC(=O)O; assay: purified protein; type: biochemical, Salmonella enterica; settings: ATP, Mg2+, pH 7.5, 37 °C
[9] = substrate: Nc1ncnc2c1ncn2[C@@H]1O[C@H](COP(=O)(O)OP(=O)(O)OP(=O)(O)O)[C@@H](O)[C@H]1O; assay: purified protein; type: biochemical, Salmonella enterica; settings: co-substrate acetate, Mg2+, pH 7.5, 37 °C
[10] = substrate: CC(=O)OP(=O)(O)O; assay: purified protein; type: biochemical, Salmonella enterica; settings: reverse reaction (ATP synthesis), ADP, Mg2+, pH 7.5, 37 °C
[11] = substrate: Nc1nc2c(ncn2[C@@H]2O[C@H](COP(=O)(O)OP(=O)(O)OP(=O)(O)O)[C@@H](O)[C@H]2O)c(=O)[nH]1; assay: initial velocity assay, acetyl-phosphate synthesis direction; type: biochemical, Salmonella enterica; settings: co-substrate acetate, Mg2+, pH 7.5, 37 °C
Description: as §1

[12] = substrate: O=c1ccn([C@@H]2O[C@H](COP(=O)(O)OP(=O)(O)OP(=O)(O)O)[C@@H](O)[C@H]2O)c(=O)[nH]1; assay: as above; type: biochemical, Salmonella enterica; settings: co-substrate acetate, Mg2+, pH 7.5, 37 °C
Description: as §1

[13] = substrate: CC(=O)O; assay: purified protein; settings: ATP, Mg2+, pH 7.5, 37 °C

O=C(O)CC(O)(CC(=O)O)C(=O)O [Citrate]
ΔTm at 10000 µM [1]: 10 °C | X-ray crystal structure, 1.90 Å [2]: only one citrate binds at the dimeric interface resulting in an asymmetric dimer | IC50 ([3]; read-out: Km): 63 ± 15 mM

Nc1ccn([C@@H]2O[C@H](COP(=O)(O)OP(=O)(O)OP(=O)(O)O)[C@@H](O)[C@H]2O)c(=O)n1 [CTP]
kcat/Km(s^-1 mM^-1) [4]: 88 ± 42 µM

NCCC(N)C(=O)O (stereo not drawn) [2,4-DAB]
IC50 ([3]; read-out: kcat/Km(s^-1 mM^-1), saturating cognate ligand, 37 °C): 5 ± 2.2 mM

CC(=O)OP(=O)(O)O [Acetyl-phosphate]
Tm [5]: 54 °C

CCCC(=O)O [butyrate]
% reduction of rate at equimolar concentration [6]: 40%

O=C(O)CCC(=O)C(=O)O [α-KG]
IC50 ([3]; read-out: kcat(s^-1)): 7 ± 1.8 mM

Nc1ncnc2c1ncn2[C@@H]1O[C@H](COP(=O)(O)OP(=O)(O)O)[C@@H](O)[C@H]1O [ADP]
Tm [5]: 52 °C

CCC(=O)C(=O)O [2-KB]
IC50 ([3]; read-out: [I]): 3 ± 1.3 mM

O=C(O)CCC(=O)O [Succinate]
IC50 ([3]; read-out: Vmax(μmol min^-1 mg^-1)): 75 ± 20 mM

O=C(O)C[C@H](O)C(=O)O [Malate]
IC50 ([3]; read-out: [I]): 1 ± 0.5 mM

B1: StAckA (Salmonella typhimurium acetate kinase, AckA) (Salmonella enterica subsp. enterica serovar Typhimurium str. LT2) (protein)
chain: T1 sequence (P63411 1-400)
notes: expressed in E. coli; Ni-NTA and gel filtration; homodimer
Km [7]: 100 ± 3 µM | Vmax [7]: 2340 µmol/min/mg | kcat [7]: 1750 ± 65 s⁻¹ | kcat/Km [7]: 1.7645e+07 ± 10000 M⁻¹ s⁻¹ | Km [8]: 11200 ± 100 µM | Vmax [8]: 1250 µmol/min/mg | kcat [8]: 940 ± 85 s⁻¹ | kcat/Km [8]: 85000 ± 10000 M⁻¹ s⁻¹ | Km [9]: 70 ± 5 µM | Vmax [9]: 1550 µmol/min/mg | kcat [9]: 1170 ± 85 s⁻¹ | kcat/Km [9]: 1.686e+07 ± 50000 M⁻¹ s⁻¹ | Km [10]: 280 ± 40 µM | Vmax [10]: 2350 µmol/min/mg | kcat [10]: 1760 ± 25 s⁻¹ | kcat/Km [10]: 6.3e+06 ± 45000 M⁻¹ s⁻¹ | Km [11]: 78 ± 27 µM | Km [12]: 96 ± 58 µM | Km [13]: 1200 ± 100 µM | Vmax [13]: 1560 µmol/min/mg | kcat/Km [13]: 985000 M⁻¹ s⁻¹
